In data set [1] the test system is immunoglobulin G (IgG), pooled. Nature of the data set: SPR. The conditions noted are these: 5' thiol (immobilized on gold); SPR imaging, aptamer immobilized on gold chip; IgG 250 nM; ka 3.69E5, kd 7.56E-3.
In data set [2] the target is human serum albumin (HSA) (Homo sapiens, UniProt P02768 P02768:25-609). Nature of the data set: SPR; counter-target; 250 nM HSA; aptamer described as selected to bind IgG and not HSA; curve only in figure. The procedure: These sequences were synthesized with a 5′ thiol and immobilized onto a gold surface in triplicate spots at a concentration of 5 uM in a volume of 10 nL. A negative aptamer of the same length not selected for binding to serum albumin was also spotted on the gold chips in the same manner. These were allowed to dry, and the remainder of the surface was blocked with thiolylated polyethylene glycol with an average molecular weight of 5 kda. The gold chips were then inserted on top of a glass prism in a Horiba Openplex Surface Plasmon Resonance imaging instrument (SPRi). Human serum albumin at two concentrations (100 nM and 250 nM) was injected over the chip at a volume of 200 uL and a flow rate of 50 uL/min. We also injected a pool of immunoglobulin (IgG) at a concentration of 250 nM at the same volume and flow rates.
Binding analysis for the selected IgG sequences was performed in a manner identical to that described for the HSA sequences.

The values that follow come from patent US20250116035, “A METHOD FOR REPRODUCIBLE APTAMER SELECTION USING CLOSED SEQUENCE SOLUTION SPACES” (NEOVENTURES BIOTECHNOLOGY INC., published 2025).

Broadly, the Kd is a measure of binding affinity in units of concentration. Read a low Kd as tighter binding.

human serum albumin (HSA), sequence (P02768 25-609, one chain of several): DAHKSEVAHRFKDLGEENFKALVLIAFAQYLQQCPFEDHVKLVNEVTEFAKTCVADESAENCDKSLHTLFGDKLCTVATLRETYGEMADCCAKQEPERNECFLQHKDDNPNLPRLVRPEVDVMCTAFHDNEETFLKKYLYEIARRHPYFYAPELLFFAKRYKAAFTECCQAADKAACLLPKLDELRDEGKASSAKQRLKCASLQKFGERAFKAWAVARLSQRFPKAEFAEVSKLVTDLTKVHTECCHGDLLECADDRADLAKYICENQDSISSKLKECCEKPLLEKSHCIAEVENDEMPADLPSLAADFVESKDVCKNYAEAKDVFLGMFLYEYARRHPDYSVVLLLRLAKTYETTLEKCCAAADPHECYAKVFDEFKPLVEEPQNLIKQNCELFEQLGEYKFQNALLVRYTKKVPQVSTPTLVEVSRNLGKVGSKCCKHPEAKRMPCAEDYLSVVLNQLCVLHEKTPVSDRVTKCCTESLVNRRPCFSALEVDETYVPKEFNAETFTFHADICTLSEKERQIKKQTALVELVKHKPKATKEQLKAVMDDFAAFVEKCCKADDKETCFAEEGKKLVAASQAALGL

The molecule “CCAGATACAGACCCGAGGTGAGAATTTCAACCATCGGCGCCAACAAAACATTCTCTCAGATACAGTAGACAGC [fBIgG-2]” returned a dissociation constant (Kd) in data set [1] of 20.5 nM.

B1: fBIgG-2 (ssDNA)
DNA: CCAGATACAGACCCGAGGTGAGAATTTCAACCATCGGCGCCAACAAAACATTCTCTCAGATACAGTAGACAGC
modifications: 5' thiol (immobilized on gold)
Consider B1, for which the binding result in data set [2] is on record as “no binding”.
